The assay concerns the target T1, HLA-A*02:01 (Homo sapiens, UniProt P04439, D140Y/D185E/D98H/E176V/E277Q/G131W/G231S/I119V/I121R/I166T/I218V/L300P/L318F/N151K/N90K/P208A/P217A/Q86G/Q94H/R138H/R169H/T345S).
T1 construct: made in house
As to the kind of experiment: MHC binding assay: UV-ligand exchange with β2m ELISA (peptide exchange yield). Conditions: binding to HLA-A*02:01 evaluated by peptide exchange yield (UV-ligand exchange, β2m ELISA). The source says:
Candidate peptides for T cell based therapies according to the present invention were further tested for their MHC binding capacity (affinity). The individual peptide-MHC complexes were produced by UV-ligand exchange, where a UV-sensitive peptide is cleaved upon UV-irradiation, and exchanged with the peptide of interest as analyzed. Only peptide candidates that can effectively bind and stabilize the peptide-receptive MHC molecules prevent dissociation of the MHC complexes. To determine the yield of the exchange reaction, an ELISA was performed based on the detection of the light chain (β2m) of stabilized MHC complexes. The assay was performed as generally described in Rodenko et al. (Rodenko et al., 2006).
96 well MAXISorp plates (NUNC) were coated over night with 2 ug/ml streptavidin in PBS at room temperature, washed 4× and blocked for 1 h at 37° C. in 2% BSA containing blocking buffer. Refolded HLA-A*02:01/MLA-001 monomers served as standards, covering the range of 15-500 ng/ml. Peptide-MHC monomers of the UV-exchange reaction were diluted 100 fold in blocking buffer. Samples were incubated for 1 h at 37° C., washed four times, incubated with 2 ug/ml HRP conjugated anti-β2m for 1 h at 37° C., washed again and detected with TMB solution that is stopped with […]. Absorption was measured at 450 nm. Candidate peptides that show a high exchange yield (preferably higher than 50%, most preferred higher than 75%) are generally preferred for a generation and production of antibodies or fragments thereof, and/or T cell receptors or fragments thereof, as they show sufficient avidity to the MHC molecules and prevent dissociation of the MHC complexes.
Background: ELISA stands for enzyme-linked immunosorbent assay.

For “282 (SLYALHVKA; listed as Homo sapiens) [compound 282]”, the Peptide exchange entry is “++ (≧20% = ++)”.
Then “169 (ALADLSVAV; listed as Homo sapiens) [compound 169]”, with “+++ (≧50 = +++)”; and “109 (ILGSFELQL; listed as Homo sapiens) [compound 109]”, with “+++ (≧50 = +++)”; and “19 (KVFELDLVTL; listed as Homo sapiens) [compound 19]”, with “++ (≧20% = ++)”.
With “221 (IMLNSVEEI; listed as Homo sapiens) [compound 221]”, the Peptide exchange entry is “++ (≧20% = ++)”.
Then “20 (ALVEKGEFAL; listed as Homo sapiens) [compound 20]”, with “++ (≧20% = ++)”; and “54 (YLVPGLVAA; listed as Homo sapiens) [compound 54]”, with “+++ (≧50 = +++)”.
For “25 (LLWGHPRVALA; listed as Homo sapiens) [compound 25]” the value was “+++ (≧50 = +++)”.
Turning to “223 (ALHPVQFYL; listed as Homo sapiens) [compound 223]”, the Peptide exchange result is “+++ (≧50 = +++)”.
Turning to “273 (SLNKQIETV; listed as Homo sapiens) [compound 273]”, the Peptide exchange result is recorded as “++ (≧20% = ++)”.
Then “114 (LLFPSDVQTL; listed as Homo sapiens) [compound 114]”, with “++ (≧20% = ++)”.
As to “41 (IVTEIISEI; listed as Homo sapiens) [compound 41]”, the Peptide exchange result is “+++ (≧50 = +++)”.
On to “65 (SLSEKSPEV; listed as Homo sapiens) [compound 65]”, for which the Peptide exchange entry was “++ (≧20% = ++)”.
Then “58 (HLLGEGAFAQV; listed as Homo sapiens) [compound 58]”, with “+++ (≧50 = +++)”; and “212 (MTLSEIHAV; listed as Homo sapiens) [compound 212]”, with “++ (≧20% = ++)”.
Consider “75 (ALLDGALQL; listed as Homo sapiens) [compound 75]”, for which the Peptide exchange entry is given as “+++ (≧50 = +++)”.
Regarding “203 (FLFVDPELV; listed as Homo sapiens) [compound 203]”, the Peptide exchange entry is reported as “++ (≧20% = ++)”.
For “262 (LLLEAVWHL; listed as Homo sapiens) [compound 262]”, the Peptide exchange result is reported as “+++ (≧50 = +++)”.
With “281 (LLLESDPKVYSL; listed as Homo sapiens) [compound 281]”, the Peptide exchange result is on record as “++ (≧20% = ++)”.
Then “151 (DISKRIQSL; listed as Homo sapiens) [compound 151]”, with “++ (≧20% = ++)”.
Then “5 (GLVDIMVHL; listed as Homo sapiens) [compound 5]”, with “+++ (≧50 = +++)”; and “185 (TLYQGLPAEV; listed as Homo sapiens) [compound 185]”, with “++ (≧20% = ++)”.
For the substance “90 (AILNVDEKNQV; listed as Homo sapiens) [compound 90]”, the Peptide exchange result is on record as “++ (≧20% = ++)”.
Then “96 (ALDTTRHEL; listed as Homo sapiens) [compound 96]”, with “++ (≧20% = ++)”.
As to “193 (ALFHMNILL; listed as Homo sapiens) [compound 193]”, the Peptide exchange result is “+++ (≧50 = +++)”.
For “45 (FLPVSVVYV; listed as Homo sapiens) [compound 45]” the value was “+++ (≧50 = +++)”; for “211 (LLTTVLINA; listed as Homo sapiens) [compound 211]”, “+++ (≧50 = +++)”.
As for “125 (AALEVLAEV; listed as Homo sapiens) [compound 125]”, the Peptide exchange entry is given as “+++ (≧50 = +++)”.
Then “274 (TLYNPERTITV; listed as Homo sapiens) [compound 274]”, with “+++ (≧50 = +++)”; and “81 (ILAEEPIYI; listed as Homo sapiens) [compound 81]”, with “++ (≧20% = ++)”; and “70 (GLTEKTVLV; listed as Homo sapiens) [compound 70]”, with “++ (≧20% = ++)”.
Take “100 (ALQSFEFRV; listed as Homo sapiens) [compound 100]”: the Peptide exchange result was “+++ (≧50 = +++)”.
For the substance “82 (ILAEEPIYIRV; listed as Homo sapiens) [compound 82]”, the Peptide exchange entry is reported as “+++ (≧50 = +++)”.
Regarding “44 (AVFNLVHVV; listed as Homo sapiens) [compound 44]”, the Peptide exchange result is recorded as “+++ (≧50 = +++)”.
Then “259 (GPGIFPPPPPQP; listed as Homo sapiens) [compound 259]”, with “+ (≧10% = +)”; and “85 (KLLDKPEQFL; listed as Homo sapiens) [compound 85]”, with “++ (≧20% = ++)”; and “140 (FLDSQITTV; listed as Homo sapiens) [compound 140]”, with “+++ (≧50 = +++)”.
For the substance “160 (TLQEWLTEV; listed as Homo sapiens) [compound 160]”, the Peptide exchange result is reported as “+++ (≧50 = +++)”.
With “235 (SLLNQPKAV; listed as Homo sapiens) [compound 235]”, the Peptide exchange result is given as “++ (≧20% = ++)”.
For “144 (FLISQTPLL; listed as Homo sapiens) [compound 144]” the value was “+++ (≧50 = +++)”; for “138 (GIINKLVTV; listed as Homo sapiens) [compound 138]”, “++ (≧20% = ++)”.
Then “252 (SLMEKNQSL; listed as Homo sapiens) [compound 252]”, with “++ (≧20% = ++)”; and “93 (RLYGYFHDA; listed as Homo sapiens) [compound 93]”, with “++ (≧20% = ++)”.
For the substance “174 (ALYSGDLHAA; listed as Homo sapiens) [compound 174]”, the Peptide exchange entry is recorded as “++ (≧20% = ++)”.
For “88 (LLLPLELSLA; listed as Homo sapiens) [compound 88]” the value was “+++ (≧50 = +++)”; for “153 (KLVELEHTL; listed as Homo sapiens) [compound 153]”, “+++ (≧50 = +++)”.
Then “224 (LLFDWSGTGRADA; listed as Homo sapiens) [compound 224]”, with “+++ (≧50 = +++)”; and “276 (RMPTVLQCV; listed as Homo sapiens) [compound 276]”, with “+++ (≧50 = +++)”.
For “165 (SLLDYEVSI; listed as Homo sapiens) [compound 165]” the value was “+++ (≧50 = +++)”; for “206 (GLDAFRIFL; listed as Homo sapiens) [compound 206]”, “++++ (≧75% = ++++)”.
“179 (TLGEIIKGV; listed as Homo sapiens) [compound 179]”: the Peptide exchange entry is reported as “+++ (≧50 = +++)”.
As to “245 (ALLEEEEGV; listed as Homo sapiens) [compound 245]”, the Peptide exchange entry was “++ (≧20% = ++)”.
“113 (FLFLKEVKV; listed as Homo sapiens) [compound 113]”: the Peptide exchange result is “++ (≧20% = ++)”.
Then “37 (QIVELIEKI; listed as Homo sapiens) [compound 37]”, with “++ (≧20% = ++)”; and “167 (LVVDEGSLVSV; listed as Homo sapiens) [compound 167]”, with “+++ (≧50 = +++)”.
“238 (HLQEKLQSL; listed as Homo sapiens) [compound 238]”: the Peptide exchange entry is “++ (≧20% = ++)”.
Then “64 (SLYAGSNNQV; listed as Homo sapiens) [compound 64]”, with “++ (≧20% = ++)”.
For “249 (YLYQILQGI; listed as Homo sapiens) [compound 249]” the value was “+++ (≧50 = +++)”; for “277 (KLQEELNKV; listed as Homo sapiens) [compound 277]”, “+++ (≧50 = +++)”; for “171 (LLLLDVPTA; listed as Homo sapiens) [compound 171]”, “++ (≧20% = ++)”.
Then “119 (SLIEESEEL; listed as Homo sapiens) [compound 119]”, with “++ (≧20% = ++)”; and “148 (YLILSSHQL; listed as Homo sapiens) [compound 148]”, with “+++ (≧50 = +++)”; and “271 (VLIEYNFSI; listed as Homo sapiens) [compound 271]”, with “+++ (≧50 = +++)”.
With “55 (HLFDKIIKI; listed as Homo sapiens) [compound 55]”, the Peptide exchange entry was “+++ (≧50 = +++)”.
As to “16 (SLADLSLLL; listed as Homo sapiens) [compound 16]”, the Peptide exchange result is listed as “+++ (≧50 = +++)”.
For the substance “214 (ALFETLIQL; listed as Homo sapiens) [compound 214]”, the Peptide exchange result is “+++ (≧50 = +++)”.

The values are drawn from patent US20160279215A1, “NOVEL PEPTIDES AND COMBINATION OF PEPTIDES FOR USE IN IMMUNOTHERAPY AGAINST VARIOUS TUMORS” (immatics biotechnologies GmbH, priority 2015, published 2016).
